Results on eight molecules are retold here after US20190177366A1 (published 2019).

Bridge positions count the residues as written; N and C are the ends. Square brackets hold non-standard residues; d marks the D form. Ends that are not written are not given here. * marks the point of attachment. hArg = N=C(N)NCCCC[C@H](N)C(=O)O; Pentanoyl = CCCCC(=O)*

For test [1], the target named is T1, human PCSK9 (proprotein convertase subtilisin/kexin type 9), His-tagged, full-length (human, UniProt A8T644 31-152; Q8NBP7 153-692, limits assumed).
T1 construct: The secreted protein is the prodomain plus the catalytic/Cys-rich part (N-terminus S153) after autocleavage; also called His-PCSK9; NARC-1
Description: SPR, Biacore T100, NTA capture, single cycle kinetics (Method 2). In general terms: In SPR one partner is held on a chip, and binding of the other changes the refractive index at the surface.

Test [2] deals with T1, human PCSK9 (proprotein convertase …). Description: TR-FRET competition vs EGF(A)-Fc on His-PCSK9.
Test [3] deals with T2, PCSK9Δhelix (human, UniProt Q8NBP7 31-152).
T2 construct: domain: prodomain; Construct M1-Q692 with engineered TEV site, cut with TEV; His-tagged (tag not written as a part); also called His-PCSK9Δhelix; open groove PCSK9Δhelix
Kind of test: SPR.

Test [4] has as its target T2, PCSK9Δhelix. Description: TR-FRET competition, Ab20 as competitor.
The target of test [5] is T3, His-tagged, full-length PCSK9 (human, UniProt A8T644 31-152; Q8NBP7 153-692).
T3 construct: Target protein of the PCSK9/EGF(A) TR-FRET assay (10 nM); also called His-PCSK9; proprotein convertase subtilisin/kexin type 9
Kind of test: TR-FRET competition; competitor EGF(A)-Fc on His-PCSK9. A general note: In TR-FRET formats the signal depends on donor and acceptor labels being close together.

The next test concerns the target T4, His-tagged PCSK9Δhelix (human, UniProt Q8NBP7 31-152; Q8NBP7 168-692).
T4 construct: Human PCSK9 M1-Q692 with engineered TEV site, cleaved by TEV protease; Target protein of the PCSK9Δhelix/Ab20 TR-FRET assay (1.25 nM); also called His-PCSK9Δhelix
Kind of test: TR-FRET competition; competitor Ab20 on His-PCSK9Δhelix.

Test [6] deals with T5, proprotein convertase subtilisin/kexin type 9 (PCSK9) (human, UniProt Q8NBP7 31-152).
T5 construct: domain: prodomain; Recombinant; tag not written as a part; also called rec.PCSK9; His-PCSK9
Description: phage competition ELISA. In general terms: ELISA stands for enzyme-linked immunosorbent assay.

T2 sequence (Q8NBP7 31-152 limits assumed, stated change not applied, form in doubt, chain 1 of 2): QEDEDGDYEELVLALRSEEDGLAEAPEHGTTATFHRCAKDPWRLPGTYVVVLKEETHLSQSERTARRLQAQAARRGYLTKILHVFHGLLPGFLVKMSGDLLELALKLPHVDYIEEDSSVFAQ
T2 sequence (Q8NBP7 other isoform, or with tags, fused parts or gaps mutant limits assumed, form in doubt, chain 2 of 2): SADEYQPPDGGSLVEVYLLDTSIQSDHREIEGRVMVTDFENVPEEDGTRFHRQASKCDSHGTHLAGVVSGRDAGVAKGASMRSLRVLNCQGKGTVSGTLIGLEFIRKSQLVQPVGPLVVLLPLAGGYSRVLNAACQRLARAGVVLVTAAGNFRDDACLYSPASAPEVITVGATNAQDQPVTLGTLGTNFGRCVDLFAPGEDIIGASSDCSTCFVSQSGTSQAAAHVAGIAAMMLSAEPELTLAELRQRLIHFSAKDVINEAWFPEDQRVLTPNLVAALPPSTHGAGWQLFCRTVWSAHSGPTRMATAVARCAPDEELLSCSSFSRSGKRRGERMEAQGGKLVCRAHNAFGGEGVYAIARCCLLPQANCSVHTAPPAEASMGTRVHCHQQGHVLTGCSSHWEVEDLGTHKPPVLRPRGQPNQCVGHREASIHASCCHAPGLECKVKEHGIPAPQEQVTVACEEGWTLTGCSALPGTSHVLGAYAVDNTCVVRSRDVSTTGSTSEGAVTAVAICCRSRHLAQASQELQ
T1 sequence (A8T644 31-152 limits assumed, chain 1 of 2): as the sequence (Q8NBP7 31-152 limits assumed, stated change not applied, form in doubt, chain 1 of 2) above
T1 sequence (A8T644 other isoform, or with tags, fused parts or gaps limits assumed, chain 2 of 2): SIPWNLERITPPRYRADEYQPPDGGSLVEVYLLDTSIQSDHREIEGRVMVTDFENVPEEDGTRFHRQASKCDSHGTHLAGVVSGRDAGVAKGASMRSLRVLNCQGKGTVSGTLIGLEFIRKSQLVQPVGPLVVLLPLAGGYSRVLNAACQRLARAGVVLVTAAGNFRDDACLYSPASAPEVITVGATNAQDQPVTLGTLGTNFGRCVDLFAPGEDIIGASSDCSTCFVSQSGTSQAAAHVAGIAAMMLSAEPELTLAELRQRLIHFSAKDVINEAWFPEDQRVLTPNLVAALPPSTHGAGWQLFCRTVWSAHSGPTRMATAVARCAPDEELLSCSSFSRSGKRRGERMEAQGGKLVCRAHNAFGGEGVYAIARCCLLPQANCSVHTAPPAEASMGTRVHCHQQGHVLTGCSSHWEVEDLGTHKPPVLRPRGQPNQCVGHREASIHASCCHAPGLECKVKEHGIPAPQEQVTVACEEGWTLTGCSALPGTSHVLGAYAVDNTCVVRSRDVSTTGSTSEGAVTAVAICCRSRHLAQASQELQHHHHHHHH
T4 sequence (Q8NBP7 31-152, stated change not applied, chain 1 of 2): as the sequence (Q8NBP7 31-152 limits assumed, stated change not applied, form in doubt, chain 1 of 2) above
T4 sequence (Q8NBP7 other isoform, or with tags, fused parts or gaps mutant, chain 2 of 2): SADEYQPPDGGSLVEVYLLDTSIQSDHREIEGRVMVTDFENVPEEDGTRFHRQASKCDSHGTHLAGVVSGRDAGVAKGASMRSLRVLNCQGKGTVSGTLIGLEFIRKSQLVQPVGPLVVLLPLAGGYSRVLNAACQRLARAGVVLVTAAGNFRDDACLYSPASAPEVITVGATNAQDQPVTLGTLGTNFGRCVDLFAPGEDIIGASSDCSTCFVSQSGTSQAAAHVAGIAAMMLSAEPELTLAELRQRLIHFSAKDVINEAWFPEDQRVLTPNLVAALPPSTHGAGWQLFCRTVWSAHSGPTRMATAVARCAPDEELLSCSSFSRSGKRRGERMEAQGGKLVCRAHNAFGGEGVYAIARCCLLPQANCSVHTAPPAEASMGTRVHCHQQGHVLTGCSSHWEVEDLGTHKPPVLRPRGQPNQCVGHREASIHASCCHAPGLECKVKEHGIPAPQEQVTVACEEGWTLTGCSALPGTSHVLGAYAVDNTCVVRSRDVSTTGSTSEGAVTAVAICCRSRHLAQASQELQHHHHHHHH
T3 sequence (A8T644 31-152 limits assumed, chain 1 of 2): as the sequence (Q8NBP7 31-152 limits assumed, stated change not applied, form in doubt, chain 1 of 2) above
T3 sequence (A8T644 other isoform, or with tags, fused parts or gaps limits assumed, chain 2 of 2): as the sequence (A8T644 other isoform, or with tags, fused parts or gaps limits assumed, chain 2 of 2) above
T5 sequence (Q8NBP7 31-152 limits assumed, chain 1 of 2): as the sequence (Q8NBP7 31-152 limits assumed, stated change not applied, form in doubt, chain 1 of 2) above
T5 sequence (Q8NBP7 153-692 limits assumed, chain 2 of 2): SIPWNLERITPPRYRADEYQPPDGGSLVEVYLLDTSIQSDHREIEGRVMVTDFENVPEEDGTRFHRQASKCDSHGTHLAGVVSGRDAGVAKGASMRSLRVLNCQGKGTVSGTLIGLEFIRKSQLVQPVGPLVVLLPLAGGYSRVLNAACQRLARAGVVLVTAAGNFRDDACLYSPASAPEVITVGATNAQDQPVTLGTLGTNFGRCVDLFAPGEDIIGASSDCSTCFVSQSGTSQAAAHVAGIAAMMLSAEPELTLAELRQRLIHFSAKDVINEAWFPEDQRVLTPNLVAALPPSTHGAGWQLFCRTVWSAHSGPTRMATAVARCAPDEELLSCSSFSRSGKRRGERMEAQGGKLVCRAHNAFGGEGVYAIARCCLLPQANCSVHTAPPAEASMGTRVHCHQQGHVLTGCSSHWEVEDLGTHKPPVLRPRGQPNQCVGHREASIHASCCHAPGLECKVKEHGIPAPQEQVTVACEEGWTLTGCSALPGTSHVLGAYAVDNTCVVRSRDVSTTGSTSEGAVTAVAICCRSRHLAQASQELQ

A word on the Kd: it is the concentration at which binding is half-saturated. Lower therefore signals a tighter complex. Ac-SPCRVGYTPC-NH2 (disulfide 3-10 (inferred)) [Compound 23]: the Kd in test [1] is 5.74 µM.

B1: Compound 2 (peptide)
peptide: Ac-TVFTSWEEYLDWVGSGCWNLKRIGSQGC-NH2
modifications: disulfide 17-28
SMILES: CC[C@H](C)[C@@H]1NC(=O)[C@H](CCCNC(=N)N)NC(=O)[C@H](CCCCN)NC(=O)[C@H](CC(C)C)NC(=O)[C@H](CC(N)=O)NC(=O)[C@H](Cc2c[nH]c3ccccc23)NC(=O)[C@@H](NC(=O)CNC(=O)[C@H](CO)NC(=O)CNC(=O)[C@@H](NC(=O)[C@H](Cc2c[nH]c3ccccc23)NC(=O)[C@H](CC(=O)O)NC(=O)[C@H](CC(C)C)NC(=O)[C@H](Cc2ccc(O)cc2)NC(=O)[C@H](CCC(=O)O)NC(=O)[C@H](CCC(=O)O)NC(=O)[C@H](Cc2c[nH]c3ccccc23)NC(=O)[C@H](CO)NC(=O)[C@@H](NC(=O)[C@H](Cc2ccccc2)NC(=O)[C@@H](NC(=O)[C@@H](NC(C)=O)[C@@H](C)O)C(C)C)[C@@H](C)O)C(C)C)CSSC[C@@H](C(N)=O)NC(=O)CNC(=O)[C@H](CCC(N)=O)NC(=O)[C@H](CO)NC(=O)CNC1=O
For orientation: IC50 means the point on the concentration scale where inhibition reaches its midpoint. A high value points to weaker potency in that assay. As to B1, the IC50 in test [2] was 0.11 µM. Also, the affinity in test [1], expressed as Kd, was 0.0303 µM.
With Ac-WNLV[hArg]IGLLR-NH2 (Ac-WNLV(homoR)IGLLR-NH2) [Compound 192], the “fold improvement of binding affinity against Compound 53” value with PCSK9Δhelix [3] worked out at 14 fold.

B2: Compound 112 (peptide)
peptide: Pentanoyl-WNLVRIGLTR-NH2
SMILES: CCCCC(=O)N[C@@H](Cc1c[nH]c2ccccc12)C(=O)N[C@@H](CC(N)=O)C(=O)N[C@@H](CC(C)C)C(=O)N[C@H](C(=O)N[C@@H](CCCNC(=N)N)C(=O)N[C@H](C(=O)NCC(=O)N[C@@H](CC(C)C)C(=O)N[C@H](C(=O)N[C@@H](CCCNC(=N)N)C(N)=O)[C@@H](C)O)[C@@H](C)CC)C(C)C
B2 yielded an IC50 with PCSK9Δhelix [4] of under 10 µM.
For the molecule Ac-WNLVRIGLLR-NH2 [Compound 53], in the test with PCSK9Δhelix [3], the “fold reduction of binding affinity against Compound 35” value was 10 fold.

B3: Compound 109 (peptide)
peptide: Ac-C[dR]LPWNLQRIGLPC-NH2
modifications: disulfide 1-14
SMILES: CC[C@H](C)[C@@H]1NC(=O)[C@H](CCCNC(=N)N)NC(=O)[C@H](CCC(N)=O)NC(=O)[C@H](CC(C)C)NC(=O)[C@H](CC(N)=O)NC(=O)[C@H](Cc2c[nH]c3ccccc23)NC(=O)[C@@H]2CCCN2C(=O)[C@H](CC(C)C)NC(=O)[C@@H](CCCNC(=N)N)NC(=O)[C@@H](NC(C)=O)CSSC[C@@H](C(N)=O)NC(=O)[C@@H]2CCCN2C(=O)[C@H](CC(C)C)NC(=O)CNC1=O
Regarding B3, the values for the IC50 (in test [5]; with His-tagged PCSK9Δhelix) were over 50 µM and 1.67 µM, respectively.
Take SGCRLPWNLQRIGLPC (not fully specified (bridges); cysteine pairing not given here, Synthetic peptide) [K9gvpep4]: the binding result in test [6] is listed as “binds”.

B4: Compound 108 (peptide)
peptide: Ac-CR[dL]PWNLQRIGLPC-NH2
modifications: disulfide 1-14
SMILES: CC[C@H](C)[C@@H]1NC(=O)[C@H](CCCNC(=N)N)NC(=O)[C@H](CCC(N)=O)NC(=O)[C@H](CC(C)C)NC(=O)[C@H](CC(N)=O)NC(=O)[C@H](Cc2c[nH]c3ccccc23)NC(=O)[C@@H]2CCCN2C(=O)[C@@H](CC(C)C)NC(=O)[C@H](CCCNC(=N)N)NC(=O)[C@@H](NC(C)=O)CSSC[C@@H](C(N)=O)NC(=O)[C@@H]2CCCN2C(=O)[C@H](CC(C)C)NC(=O)CNC1=O
On to B4, for which the figures for the IC50 (in test [5]; in the test with His-tagged PCSK9Δhelix) were over 50 µM and 28.2 µM, respectively.
